Results as given in US20200181261A1 (Bayer, published 2020).

How the values were obtained:
[1] = molecular target: T1, Macaca fascicularis CEACAM6, extracellular (mature form), obtained by Factor Xa cleavage of TPP-2443 (Macaca fascicularis); assay: ELISA, antigen coated
T1 construct: used biotinylated in some assays; also called APP-319; Cynomolgus CEACAM6
T1 chain: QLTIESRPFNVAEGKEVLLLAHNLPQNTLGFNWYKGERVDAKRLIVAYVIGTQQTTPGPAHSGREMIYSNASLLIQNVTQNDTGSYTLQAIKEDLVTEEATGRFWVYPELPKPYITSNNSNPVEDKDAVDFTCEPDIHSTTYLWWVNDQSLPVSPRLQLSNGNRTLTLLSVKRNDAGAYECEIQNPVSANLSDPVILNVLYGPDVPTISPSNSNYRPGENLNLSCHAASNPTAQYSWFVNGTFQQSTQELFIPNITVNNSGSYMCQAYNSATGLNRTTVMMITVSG
Method: (§1) ELISAs were used to characterize the binding of antibodies to various CEACAM paralogs and orthologs. Black 384-well plates were coated with […] of various CEACAM protein preparations at 2 μg/ml in coating buffer (Candor) for 1 h at 37° C. After one wash with PBS/0.05% Tween-20, wells were blocked with 100% Smart Block (Candor) for one hour at 37° C. After three washes with PBS/0.05% Tween-20, dilution series of the antibodies in PBS/0.05% Tween-20/10% Smart Block ranging from 2 μg/ml to 2 ng/ml were added and the plates were incubated for 1 h at room temperature. After three washes with PBS/0.05% Tween-20, an appropriate secondary antibody was added. For detection of proteins with a human Fc such as TPP-1173, an anti-human IgG HRP (Sigma A0170) was used at 1:10.000 dilution. For detection of proteins with a mouse Fc such as TPP-1744 an anti-mouse IgG HRP (ThermoScientific 31432) was used at 1:10.000 dilution. PBS/0.05% Tween-20/10% Smart Block was used as dilution buffer. The plates were incubated for 1 hour at room temperature. After three washes, the plates were developed with Amplex Red (Life Technologies) and fluorescence was read at an emission wavelength of 590 nm. GraphPad Prism 6.0 software was used to calculate EC₅₀ values using four-parameter non-linear curve fit. […]

[2] = molecular target: T2, human CEACAM5, extracellular (mature form), R&D Systems 4128-CM (human, UniProt P06731 35-685); assay: ELISA, antigen coated
T2 construct: used biotinylated in some assays; also called TPP-1438; hC5
T2 sequence: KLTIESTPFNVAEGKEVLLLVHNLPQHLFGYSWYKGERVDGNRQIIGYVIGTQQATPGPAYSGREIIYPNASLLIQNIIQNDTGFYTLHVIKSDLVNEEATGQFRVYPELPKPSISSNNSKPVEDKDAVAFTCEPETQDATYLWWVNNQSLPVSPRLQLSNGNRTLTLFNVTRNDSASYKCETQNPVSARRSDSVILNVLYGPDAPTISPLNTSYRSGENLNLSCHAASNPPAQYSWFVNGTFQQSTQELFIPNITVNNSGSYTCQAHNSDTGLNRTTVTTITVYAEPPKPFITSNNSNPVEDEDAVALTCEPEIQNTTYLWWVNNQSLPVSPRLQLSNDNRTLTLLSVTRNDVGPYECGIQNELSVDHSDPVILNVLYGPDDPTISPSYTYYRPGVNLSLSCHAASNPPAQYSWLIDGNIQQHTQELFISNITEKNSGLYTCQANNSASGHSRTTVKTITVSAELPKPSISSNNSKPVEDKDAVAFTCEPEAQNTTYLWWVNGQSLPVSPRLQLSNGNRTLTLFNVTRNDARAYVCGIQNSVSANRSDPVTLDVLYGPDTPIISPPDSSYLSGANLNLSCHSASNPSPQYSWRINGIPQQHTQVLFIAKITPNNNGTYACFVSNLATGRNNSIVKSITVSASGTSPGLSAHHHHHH
Method: as §1

[3] = molecular target: T3, Human CEACAM6-Domain 1-His (expressed in E. coli), wild-type (human); assay: domain mapping ELISA, antigen coated
T3 construct: entry includes the His tag; also called hDOM1
T3 chain: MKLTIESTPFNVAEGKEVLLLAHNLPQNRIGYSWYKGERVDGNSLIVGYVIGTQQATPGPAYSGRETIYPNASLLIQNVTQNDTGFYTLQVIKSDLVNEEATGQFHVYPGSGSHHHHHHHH
Method: (§2) For ELISA analysis, the Fc-fused domain chimeras and the single domain 1 were coated on Nunc MaxiSorb plates and blocked with SmartBlock solution. After incubation with an IgG-concentration series (1 nM-1000 nM) for 1 h, plates were washed with PBS/T. Analysis of the bound IgGs to the CEACAM6 domain constructs was achieved over detection via Anti-Human IgG (Fab specific)-Peroxidase antibody (A0293, Sigma). Fluorescence detection was performed with AmplexRed (A12222, Invitrogen) following standard protocols.

[4] = molecular target: T4, Human CEACAM6-Dom2-MacMul-Xa-Fc-His (human, Domain 2 from Macaca mulatta); assay: domain mapping ELISA, antigen coated
T4 construct: domain chimera fused to Xa-Fc-His; also called TPP-1792; DOM2 MM
Method: as §2

[5] = molecular target: T5, Macaca mulatta CEACAM6-Xa-Fc-His (Macaca mulatta); assay: SPR, antibody captured, antigen as analyte
T5 construct: extracellular (mature form) fused to Factor Xa site, human IgG1 Fc and His tag; the entry is the whole fusion; also called TPP-1306; MM WT
Method: Surface plasmon resonance (SPR) experiments for quantitative binding analyses were performed either using a Biacore T100, Biacore T200 or a Biacore 4000 instrument (GE Healthcare Biacore, Inc.) equipped with Series S Sensor Chips CM5 (GE Healthcare Biacore, Inc.). Binding assays were carried out at 25° C. with assay buffer HBS-EP+(10 mM HEPES pH 7.4, 150 mM NaCl, 3 mM EDTA, 0.05% Surfactant P20). Antibodies were captured with an anti-hIgG capture antibody covalently immobilized to the chip surface via amine coupling chemistry. Reagents for amine coupling (1-ethyl-3-(3-dimethylaminopropyl) carbodiimide hydrochloride (EDC), N-hydroxysuccinimide (NHS), ethanolamine-HCl pH 8.5) were used from the Amine Coupling Kit (GE Healthcare, product code BR-1000-50). Anti-hIgG, anti-mIgG capture antibodies and immobilization buffer (10 mM sodium acetate pH 5.0) were used from the Human Antibody Capture Kit (GE Healthcare, BR-1008-39) and the Mouse Antibody Capture Kit (GE Healthcare, BR-1008-38), respectively. The sensor chip surface was activated with a freshly prepared solution of 0.2 M EDC and 0.05 M NHS passed over the chip surface for 420 s at a flow rate of 10 μl/min, followed by an injection of anti-hIgG or anti-mIgG capture antibody (dissolved to 25 μg/ml in immobilization buffer) for 180 s at a flow rate of […]. Excess of activated groups were blocked with a 1 molar solution of ethanolamine injected at a flow rate of 10 μl/min for 420 s.
CEACAM antigens were used as analyte to determine KD values. Antibodies were captured for 20 s at a flow rate of 10 μl/min prior to each analyte injection.
Obtained sensorgrams were double-referenced, i.e. in-line reference cell correction followed by buffer sample subtraction.

B1: Neo201 (human IgG1) (antibody, V domains shown)
VH: QVQLVQSGAEVKKPGASVKVSCKASGYTFTDYAMHWVRQAPGQRLEWMGLISTYSGDTKYNQNFQGRVTMTVDKSASTAYMELSSLRSEDTAVYYCARGDYSGSRYWFAYWGQGTLVTVSS
VL: DIQMTQSPSSLSASVGDRVTITCQASENIYGALNWYQRKPGKSPKLLIYGASNLATGMPSRFSGSGSGTDYTFTISSLQPEDIATYYCQQVLSSPYTFGGGTKLEIKR
notes: based on US20130189268; also called TPP-1173; Neo201-hIgG1
For B1, the EC50 [1] was 1.35 nM, the EC50 [2] was 0.09 nM and the binding result [3] was “no binding (tested: 1000 nM IgG)”. For the same binder, the binding result [4] was “binds” and the Kd [5] was 23 nM.
